In publication PMC3102678 one finds inhibition of F-mediated conjugation by replicating phage M13-km^R (no pre-infection), binding model applied naively without phage replication and infection: apparent Kd data, which are given here for one substance.

The target in this assay is F pilus (conjugative pilus encoded by the F′ plasmid) on E. coli TOP10F′ (F+) cells (E. coli (endogenous on TOP10F′, F′ plasmid)) (UniProt P04737).
UniProt P04737, sequence (P04737 52-121): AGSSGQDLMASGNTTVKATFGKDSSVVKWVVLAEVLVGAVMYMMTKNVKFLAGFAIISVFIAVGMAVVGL

In the case of “g3p on replicating phage M13-km^R (from UniProt P69168 19-424) (natural protein)”, the inhibition of F-mediated conjugation by replicating phage M13-km^R (no pre-infection), binding model applied naively without phage replication and infection: apparent Kd turned out to be 2.4 pM.
